The results in this text go back to US20220227876A1 (COUNCIL OF THE QUEENSLAND INSTITUTE OF MEDICAL RESEARCH, published 2022).

Holding throughout (test): cell-based or functional assay
Assay [1] concerns the target recombinant soluble human RANKL (human) (UniProt O14788).
Assay [2] deals with soluble mouse RANKL (mouse) (UniProt O35235).
For assay [3], the target named is T1, mouse RANK on murine bone marrow cells (mouse, UniProt O35305 31-625).
T1 sequence (looked up): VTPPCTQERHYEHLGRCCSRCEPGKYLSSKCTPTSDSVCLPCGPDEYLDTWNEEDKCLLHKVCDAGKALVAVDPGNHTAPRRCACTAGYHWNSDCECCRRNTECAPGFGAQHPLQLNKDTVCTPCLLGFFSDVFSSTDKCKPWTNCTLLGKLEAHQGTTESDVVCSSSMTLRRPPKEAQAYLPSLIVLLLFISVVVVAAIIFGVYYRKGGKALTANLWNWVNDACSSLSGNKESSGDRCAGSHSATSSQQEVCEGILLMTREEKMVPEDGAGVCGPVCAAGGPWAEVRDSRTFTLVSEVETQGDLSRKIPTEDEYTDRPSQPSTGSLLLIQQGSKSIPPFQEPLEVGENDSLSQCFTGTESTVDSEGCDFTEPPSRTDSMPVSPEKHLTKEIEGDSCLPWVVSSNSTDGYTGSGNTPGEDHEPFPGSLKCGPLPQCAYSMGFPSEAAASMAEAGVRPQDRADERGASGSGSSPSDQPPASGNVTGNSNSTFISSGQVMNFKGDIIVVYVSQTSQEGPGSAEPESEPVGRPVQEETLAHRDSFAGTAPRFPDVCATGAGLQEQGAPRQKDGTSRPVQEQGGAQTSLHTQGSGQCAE

“And” between values parts separate entries of the source, which are not always exact repeats. Equal entries are not always repeated.

Sequence of soluble mouse RANKL (mouse) (O35235 143-316 limits assumed): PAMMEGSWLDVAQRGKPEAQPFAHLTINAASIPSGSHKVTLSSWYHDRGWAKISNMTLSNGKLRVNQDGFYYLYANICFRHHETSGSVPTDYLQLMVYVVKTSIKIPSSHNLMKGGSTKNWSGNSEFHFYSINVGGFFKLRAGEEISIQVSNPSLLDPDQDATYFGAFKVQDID
Sequence of recombinant soluble human RANKL (human) (O14788 143-317 limits assumed): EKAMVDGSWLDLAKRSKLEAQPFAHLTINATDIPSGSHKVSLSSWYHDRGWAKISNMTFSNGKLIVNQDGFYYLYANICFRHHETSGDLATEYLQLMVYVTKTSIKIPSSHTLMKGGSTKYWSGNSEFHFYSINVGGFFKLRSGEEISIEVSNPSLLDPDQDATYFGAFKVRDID

Take “RANK-Fc (positive control in osteoclast assay) (Fc fusion)”: in assay [1], the IC50, huRANKL-induced osteoclast formation (TRAP+ multinucleated cells) is 0.092 µg/mL; the concentration for complete block of huRANKL-induced osteoclast formation was 500 ng/mL and 1000 ng/mL.

B1: anti-muRANKL IK22-5 mAb (antibody, from a related filing, V domains shown)
VH: QVQLKESGPGLVLSSATLSLTCTVSGFSLTNYDVSWIRHLPGKGLEWMGGVWLSGNTEYNSDFKSRLSISRDISKSQVFLKMSNLKIEDTGTYYCARDIGTTSDYWGQGVTVTVSS
VL: DIQVTQSPSFLSASVGDRVTFNCKTSQNINKYLAWYQAKFGEGPKLLIFNADSLQSGIPPRFSGSGSGTDFTLTISGLQPEDFATYFCLQYNSWPTFGSGTKLEIK
In assay [2], B1 showed an IC50, muRANKL-induced osteoclast formation (TRAP+ multinucleated cells) of 0.0198 µg/mL and a concentration for complete block of muRANKL-induced osteoclast formation of 62.5 to 125 ng/mL.

B2: anti-RANK 3A3 antibody (full-length IgG, human Fab on a mouse IgG2a Fc backbone) (antibody, V domains shown)
VH: EVQLVESGGGVVQPGTSLRLSCAASGFTFSSYAMHWVRQAPGKGLEWVAVVSYDGSTKSYADSMKGRFTISRDNSKNTLYLQMNSLRAEDTAVYYCAKDPALRYFDWGYFQHWGQGTLVTVSS
VL: SYELTQPPSVSVSPGQTASITCSGDKLGDKYVCWYQQKPGQSPVLVIYGDSERPSGIPERFSGSNSGNTATLTISGTRAVDEADYYCQAWDSTTPLFGGGTNLTVL
On to B2, for which, in assay [3], the “IC50, huRANKL-induced osteoclast formation (TRAP+ multinucleated cells)” value turned out to be 0.0035 µg/mL; the “IC50, muRANKL-induced osteoclast formation (TRAP+ multinucleated cells)” value is 0.0074 µg/mL; the “potency ratio from IC50s, huRANKL-induced osteoclast formation” value is approximately 25 fold; the “potency ratio from IC50s, muRANKL-induced osteoclast formation” value is approximately 2 fold.
